# From US20230250139A1 (MIT, published 2023)
# Biological target: the molecule itself
# Assay: self-assembly in cultured mouse hippocampal neurons; anti-HA immunofluorescence, confocal
row,Protein,binding result
1,UBC-1POK(E239Y)-Linker12-gg-HA (other) MIDYTAAGFTLLQGAHLYAPEDRGICDVLVANGKIIAVASNIPSDIVPNCTVVDLSGQILCPGFIDQHVHLIGGGGEAGPTTRTPEVALSRLTEAGVTSVVGLLGTDSISRHPESLLAKTRALNEEGISAWMLTGAYHVPSRTITGSVEKDVAIIDRVIGVKCAISDHRSAAPDVYHLANMAAESRVGGLLGGKPGVTVFHMGDSKKALQPIYDLLENCDVPISKLLPTHVNRNVPLFYQALEFARKGGTIDITSSIDEPVAPAEGIARAVQAGIPLARVTLSSDGNGSQPFFDDEGNLTHIGVAGFETLLETVQVLVKDYDFSISDALRPLTSSVAGFLNLTGKGEILPGNDADLLVMTPELRIEQVYARGKLMVKDGKACVKGTFETAGGSGGTGGSGGTGGYPYDVPDYA,binds
2,CMV-DHF40-Linker8-HA (other) MSSEKEELRERLVKICVELAKLKGDDTLKAAEAAEEAFRLVVLAAMLAGIDSSEVLELAIRLIKTCVVLAAMEGYDISEACRAAAEAFTRVAMAALRAGITSSLVLKAAIELIKECVLNAAVEGYDISEACRAAAEAFKRVAEAAKRAGITSLETLLRAIEEIRKRVEEAQREGNDISEACRQAAEEFRKKAEELKRRGDVGGSGGTGGYPYDVPDYA,binds
3,CMV-1POK(E239Y)-Linker8-HA (other) MIDYTAAGFTLLQGAHLYAPEDRGICDVLVANGKIIAVASNIPSDIVPNCTVVDLSGQILCPGFIDQHVHLIGGGGEAGPTTRTPEVALSRLTEAGVTSVVGLLGTDSISRHPESLLAKTRALNEEGISAWMLTGAYHVPSRTITGSVEKDVAIIDRVIGVKCAISDHRSAAPDVYHLANMAAESRVGGLLGGKPGVTVFHMGDSKKALQPIYDLLENCDVPISKLLPTHVNRNVPLFYQALEFARKGGTIDITSSIDEPVAPAEGIARAVQAGIPLARVTLSSDGNGSQPFFDDEGNLTHIGVAGFETLLETVQVLVKDYDFSISDALRPLTSSVAGFLNLTGKGEILPGNDADLLVMTPELRIEQVYARGKLMVKDGKACVKGTFETAGGSGGTGGYPYDVPDYA,binds
4,UBC-1POK(E239Y)-Linker7-HA-Linker3-Top7 (other) MIDYTAAGFTLLQGAHLYAPEDRGICDVLVANGKIIAVASNIPSDIVPNCTVVDLSGQILCPGFIDQHVHLIGGGGEAGPTTRTPEVALSRLTEAGVTSVVGLLGTDSISRHPESLLAKTRALNEEGISAWMLTGAYHVPSRTITGSVEKDVAIIDRVIGVKCAISDHRSAAPDVYHLANMAAESRVGGLLGGKPGVTVFHMGDSKKALQPIYDLLENCDVPISKLLPTHVNRNVPLFYQALEFARKGGTIDITSSIDEPVAPAEGIARAVQAGIPLARVTLSSDGNGSQPFFDDEGNLTHIGVAGFETLLETVQVLVKDYDFSISDALRPLTSSVAGFLNLTGKGEILPGNDADLLVMTPELRIEQVYARGKLMVKDGKACVKGTFETAGGSGGTGYPYDVPDYAGSGDIQVQVNIDDNGKNFDYTYTVTTESELQKVLNELKDYIKKQGAKRVRISITARTKKEAEKFAAILIKVFAELGYNDINVTWDGDTVTVEGQLE,binds
5,UBC-1POK(E239Y)-Linker25-HA-gsg-Top7 (other) MIDYTAAGFTLLQGAHLYAPEDRGICDVLVANGKIIAVASNIPSDIVPNCTVVDLSGQILCPGFIDQHVHLIGGGGEAGPTTRTPEVALSRLTEAGVTSVVGLLGTDSISRHPESLLAKTRALNEEGISAWMLTGAYHVPSRTITGSVEKDVAIIDRVIGVKCAISDHRSAAPDVYHLANMAAESRVGGLLGGKPGVTVFHMGDSKKALQPIYDLLENCDVPISKLLPTHVNRNVPLFYQALEFARKGGTIDITSSIDEPVAPAEGIARAVQAGIPLARVTLSSDGNGSQPFFDDEGNLTHIGVAGFETLLETVQVLVKDYDFSISDALRPLTSSVAGFLNLTGKGEILPGNDADLLVMTPELRIEQVYARGKLMVKDGKACVKGTFETAGGSGGTGGSGGTGGSGGTGGSGGTGYPYDVPDYAGSGDIQVQVNIDDNGKNFDYTYTVTTESELQKVLNELKDYIKKQGAKRVRISITARTKKEAEKFAAILIKVFAELGYNDINVTWDGDTVTVEGQLE,binds
